Molecular target: the molecule itself
Assay: AUC

B1: endo_N-BAR L187C (C108A) labeled with A488 (domain or fragment, rat, UniProt O35179 1-247, looked up)
chain: MSVAGLKKQFHKATQKVSEKVGGAEGTKLDDDFKEMERKVDVTSRAVMEIMTKTIEYLQPNPASRAKLSMINTMSKIRGQEKGPGYPQAEALLAEAMLKFGRELGDDANFGPALGEVGEAMRELSEVKDSLDMEVKQNFIDPLQNLHDKDLREIQHHLKKLEGRRLDFDYKKKRQGKIPDEELRQACEKFDESKEIAESSMFNLLEMDIEQVSQLSALVQAQLEYHKQAVQILQQVTVRLEERIRQA
modifications: Alexa Fluor 488 C5-maleimide on the introduced Cys 187
  stoichiometry N: 2
